Each block holds one binder with its values, some of them ahead of it.
Columns and labels:
Test in all cases: holdup assay
Set-up in all cases: key: below the threshold = too weak to quantify, mostly under pKd 3.1 to 4
[1] = molecular target: IL16_4, Q14005
[2] = molecular target: TJP1_3, Q07157
[3] = molecular target: HTRA2, O43464
[4] = molecular target: Inadl_6, Q8NI35
[5] = molecular target: T1, RADIL, Q96JH8
T1 sequence (Q96JH8 971-1071, limits assumed, looked up): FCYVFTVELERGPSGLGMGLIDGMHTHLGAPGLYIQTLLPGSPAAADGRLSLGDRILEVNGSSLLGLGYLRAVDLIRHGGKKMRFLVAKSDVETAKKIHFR

[6] = molecular target: T2, MPDZ_5, O75970
T2 sequence (O75970 695-796, limits assumed, looked up): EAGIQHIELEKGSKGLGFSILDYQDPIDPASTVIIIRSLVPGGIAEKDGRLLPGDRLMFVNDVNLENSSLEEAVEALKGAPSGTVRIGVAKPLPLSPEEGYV

[7] = molecular target: ARHGEF12, Q9NZN5-2
[8] = molecular target: T3, MPP6, Q9NZW5
T3 sequence (Q9NZW5 125-219, limits assumed, looked up): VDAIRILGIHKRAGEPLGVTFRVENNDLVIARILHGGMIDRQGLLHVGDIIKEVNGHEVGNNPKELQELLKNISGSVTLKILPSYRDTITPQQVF

[9] = molecular target: GRIP2_5, Q9C0E4
[10] = molecular target: GIPC2, Q8TF65
[11] = molecular target: T4, CARD11, Q9BXL7
T4 sequence (Q9BXL7 662-765, limits assumed, looked up): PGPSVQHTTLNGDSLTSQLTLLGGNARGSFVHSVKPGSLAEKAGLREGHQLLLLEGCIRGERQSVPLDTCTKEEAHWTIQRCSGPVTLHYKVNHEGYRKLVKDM

[12] = molecular target: T5, SIPA1L2, Q9P2F8
T5 sequence (Q9P2F8 945-1036, limits assumed, looked up): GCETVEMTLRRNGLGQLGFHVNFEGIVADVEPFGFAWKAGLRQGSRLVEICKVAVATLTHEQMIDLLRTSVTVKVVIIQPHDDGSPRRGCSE

[13] = molecular target: Inadl_3, Q8NI35
[14] = molecular target: T6, RAPGEF6, Q8TEU7
T6 sequence (Q8TEU7 525-625, limits assumed, looked up): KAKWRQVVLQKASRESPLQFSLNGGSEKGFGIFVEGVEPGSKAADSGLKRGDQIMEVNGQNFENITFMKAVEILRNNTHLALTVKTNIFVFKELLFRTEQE

[15] = molecular target: T7, ARHGEF11, O15085
T7 sequence (O15085 42-136, limits assumed, looked up): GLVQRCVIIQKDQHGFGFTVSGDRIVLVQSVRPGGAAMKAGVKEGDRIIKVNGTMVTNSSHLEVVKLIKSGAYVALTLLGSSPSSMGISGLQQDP

[16] = molecular target: PTPN3, P26045
[17] = molecular target: MAGI1_2, Q96QZ7
[18] = molecular target: PDLIM1, O00151
[19] = molecular target: T8, MPDZ_10, O75970
T8 sequence (O75970 1624-1722, limits assumed, looked up): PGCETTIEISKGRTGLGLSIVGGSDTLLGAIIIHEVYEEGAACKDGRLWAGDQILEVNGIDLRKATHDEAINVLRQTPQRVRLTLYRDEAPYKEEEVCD

[20] = molecular target: T9, LIN7C, Q9NUP9
T9 sequence (Q9NUP9 88-185, limits assumed, looked up): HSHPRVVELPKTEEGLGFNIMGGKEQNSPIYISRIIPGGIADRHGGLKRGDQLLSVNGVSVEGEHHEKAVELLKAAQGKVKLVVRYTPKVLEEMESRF

[21] = molecular target: T10, PTPN13_1, Q12923
T10 sequence (Q12923 1088-1188, limits assumed, looked up): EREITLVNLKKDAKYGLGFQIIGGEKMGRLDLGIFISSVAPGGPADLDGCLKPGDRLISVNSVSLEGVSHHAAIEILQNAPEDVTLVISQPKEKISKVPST

[22] = molecular target: T11, ARHGAP21, Q5T5U3
T11 sequence (Q5T5U3 45-169, limits assumed, looked up): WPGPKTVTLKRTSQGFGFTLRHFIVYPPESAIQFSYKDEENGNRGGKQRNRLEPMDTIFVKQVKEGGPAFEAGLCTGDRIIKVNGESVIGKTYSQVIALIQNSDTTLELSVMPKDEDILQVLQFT

[23] = molecular target: NHERF4_4, Q86UT5
[24] = molecular target: Inadl_2, Q8NI35
[25] = molecular target: T12, DVL3, Q92997
T12 sequence (Q92997 244-331, limits assumed, looked up): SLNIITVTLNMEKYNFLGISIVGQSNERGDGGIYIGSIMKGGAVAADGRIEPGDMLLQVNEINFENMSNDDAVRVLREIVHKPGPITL

[26] = plain residues with an end cap or a label only (N-terminal biotin on a linker: ttds)
[27] = plain residues with an end cap or a label only (N-terminal biotin on a linker: ahx)

Chain of PTPN3, P26045 (P26045 505-587): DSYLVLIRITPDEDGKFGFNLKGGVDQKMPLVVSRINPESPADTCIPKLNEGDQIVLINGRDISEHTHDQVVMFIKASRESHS
Chain of GRIP2_5, Q9C0E4 (Q9C0E4 544-642): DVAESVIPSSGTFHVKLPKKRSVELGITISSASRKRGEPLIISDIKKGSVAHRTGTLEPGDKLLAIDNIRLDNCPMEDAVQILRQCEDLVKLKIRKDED
Chain of HTRA2, O43464 (O43464 355-458): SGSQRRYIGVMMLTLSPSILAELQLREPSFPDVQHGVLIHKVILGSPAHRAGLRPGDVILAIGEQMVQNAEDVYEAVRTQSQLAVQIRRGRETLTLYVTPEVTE
Chain of ARHGEF12, Q9NZN5-2 (Q9NZN5 other isoform, or with tags, fused parts or gaps): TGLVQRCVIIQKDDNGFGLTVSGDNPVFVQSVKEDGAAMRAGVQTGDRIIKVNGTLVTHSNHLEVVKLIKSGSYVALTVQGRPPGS
Chain of TJP1_3, Q07157 (Q07157 416-512): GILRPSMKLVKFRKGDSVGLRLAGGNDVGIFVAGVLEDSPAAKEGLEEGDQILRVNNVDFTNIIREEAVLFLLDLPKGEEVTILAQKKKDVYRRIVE
Chain of IL16_4, Q14005 (Q14005 1229-1329): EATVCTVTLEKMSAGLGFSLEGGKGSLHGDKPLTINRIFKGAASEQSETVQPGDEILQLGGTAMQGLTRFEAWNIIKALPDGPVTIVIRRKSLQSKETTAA
Chain of NHERF4_4, Q86UT5 (Q86UT5 464-550): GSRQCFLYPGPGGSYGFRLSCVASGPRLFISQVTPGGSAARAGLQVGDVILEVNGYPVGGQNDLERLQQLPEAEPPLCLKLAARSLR
Chain of Inadl_6, Q8NI35 (Q8NI35 1058-1167): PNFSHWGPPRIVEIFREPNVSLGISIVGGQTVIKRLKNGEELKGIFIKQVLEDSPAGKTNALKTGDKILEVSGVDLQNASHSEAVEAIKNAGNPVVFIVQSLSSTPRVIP
Chain of MAGI1_2, Q96QZ7 (Q96QZ7 456-580): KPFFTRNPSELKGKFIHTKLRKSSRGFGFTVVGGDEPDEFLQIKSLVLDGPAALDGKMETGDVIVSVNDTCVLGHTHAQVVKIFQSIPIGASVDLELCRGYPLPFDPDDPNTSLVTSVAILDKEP
Chain of Inadl_2, Q8NI35 (Q8NI35 238-335): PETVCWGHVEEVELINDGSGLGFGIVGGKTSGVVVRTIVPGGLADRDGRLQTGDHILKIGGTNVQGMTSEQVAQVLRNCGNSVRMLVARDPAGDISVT
Chain of GIPC2, Q8TF65 (Q8TF65 112-203): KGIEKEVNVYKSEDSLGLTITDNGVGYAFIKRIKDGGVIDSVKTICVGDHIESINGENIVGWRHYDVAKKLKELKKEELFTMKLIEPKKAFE
Chain of PDLIM1, O00151 (O00151 1-87): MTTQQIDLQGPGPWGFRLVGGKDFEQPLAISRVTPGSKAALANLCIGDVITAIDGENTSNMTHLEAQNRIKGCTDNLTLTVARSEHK
Chain of Inadl_3, Q8NI35 (Q8NI35 359-469): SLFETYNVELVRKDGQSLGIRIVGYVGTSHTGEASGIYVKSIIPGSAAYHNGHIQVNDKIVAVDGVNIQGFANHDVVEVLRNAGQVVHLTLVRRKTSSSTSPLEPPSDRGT

pKd [1, 26]: below the threshold
pKd [2, 26]: below the threshold
pKd [3, 26]: below the threshold
pKd [4, 26]: below the threshold
pKd [5, 26]: below the threshold
pKd [6, 26]: below the threshold
pKd [7, 26]: below the threshold
pKd [8, 26]: below the threshold
pKd [9, 26]: below the threshold
pKd [10, 26]: below the threshold
pKd [11, 26]: below the threshold
pKd [12, 26]: below the threshold
pKd [13, 26]: below the threshold
pKd [14, 26]: below the threshold
pKd [15, 26]: below the threshold
pKd [16, 26]: 4.34
pKd [17, 26]: below the threshold
pKd [18, 26]: below the threshold
pKd [19, 26]: 3.51
pKd [20, 26]: below the threshold
pKd [21, 26]: below the threshold
pKd [22, 26]: below the threshold
pKd [23, 26]: below the threshold
pKd [24, 26]: below the threshold
pKd [25, 26]: below the threshold
B1: TANC2, Q9HCD6 (peptide)
chain: PKRPFVESNV

pKd [1, 26]: below the threshold
pKd [2, 26]: below the threshold
pKd [3, 26]: below the threshold
pKd [4, 26]: below the threshold
pKd [5, 26]: below the threshold
pKd [6, 26]: below the threshold
pKd [7, 26]: below the threshold
pKd [8, 26]: below the threshold
pKd [9, 26]: below the threshold
pKd [10, 26]: 3.51
pKd [11, 26]: below the threshold
pKd [12, 26]: below the threshold
pKd [13, 26]: below the threshold
pKd [14, 26]: below the threshold
pKd [15, 26]: below the threshold
pKd [16, 26]: 3.78
pKd [17, 26]: below the threshold
pKd [18, 26]: below the threshold
pKd [19, 26]: below the threshold
pKd [20, 26]: below the threshold
pKd [21, 26]: below the threshold
pKd [22, 26]: below the threshold
pKd [23, 26]: below the threshold
pKd [24, 26]: below the threshold
pKd [25, 26]: below the threshold
B2: CIT, O14578 (peptide)
chain: VNKVWDQSSV

pKd [1, 27]: below the threshold
pKd [2, 27]: below the threshold
pKd [3, 27]: below the threshold
pKd [4, 27]: below the threshold
pKd [5, 27]: below the threshold
pKd [6, 27]: below the threshold
pKd [7, 27]: 3.68
pKd [8, 27]: below the threshold
pKd [9, 27]: below the threshold
pKd [10, 27]: 4.33
pKd [11, 27]: below the threshold
pKd [12, 27]: below the threshold
pKd [13, 27]: 3.91
pKd [14, 27]: below the threshold
pKd [15, 27]: 3.56
pKd [16, 27]: 4.35
pKd [17, 27]: below the threshold
pKd [18, 27]: 3.71
pKd [19, 27]: 3.84
pKd [20, 27]: below the threshold
pKd [21, 27]: below the threshold
pKd [22, 27]: 3.71
pKd [23, 27]: below the threshold
pKd [24, 27]: below the threshold
pKd [25, 27]: below the threshold
B3: GRIN2B, Q13224 (peptide)
chain: EKLSSIESDV

Source: publication PMC9482650, “Quantitative fragmentomics allow affinity mapping of interactomes” (Nature Communications, 2022)
